Reference: US20140093973A1 (BOARD OF REGENTS OF THE UNIVERSITY OF OKLAHOMA, published 2014)
Read-outs that look alike come from different tables or passages of the source. Ends that are not written are not given here.

How the values were obtained:
soluble HLA-A*2402 [1] = target: T1, soluble HLA-A*2402 (human); assay: FP screen
T1 construct: Member of the panel of 53 single-specificity sHLA

soluble HLA-B*1512 [2] = target: T2, soluble HLA-B*1512 (human); assay: FP screen
T2 construct: Member of the panel of 53 single-specificity sHLA

soluble HLA-A*2601 [3] = target: T3, soluble HLA-A*2601 (human); assay: FP screen
T3 construct: Member of the panel of 53 single-specificity sHLA

soluble HLA-A*6601 [4] = target: T4, soluble HLA-A*6601 (human); assay: FP screen
T4 construct: Member of the panel of 53 single-specificity sHLA

soluble HLA-B*1801 [5] = target: T5, soluble HLA-B*1801 (human); assay: FP screen
T5 construct: Member of the panel of 53 single-specificity sHLA

soluble HLA-A*0101 [6] = target: T6, soluble HLA-A*0101 (human); assay: FP screen
T6 construct: Member of the panel of 53 single-specificity sHLA

soluble HLA-B*1302 [7] = target: T7, soluble HLA-B*1302 (human); assay: FP screen
T7 construct: Member of the panel of 53 single-specificity sHLA

[8] = target: T8, soluble HLA-B*2705 (sHLA-B*2705) (human); assay: FP screen
T8 construct: Recombinant soluble class I with endogenous peptides, made as m1; negative control

soluble HLA-B*4002 [9] = target: T9, soluble HLA-B*4002 (human); assay: FP screen
T9 construct: Member of the panel of 53 single-specificity sHLA

soluble HLA-B*4402 [10] = target: T10, soluble HLA-B*4402 (human); assay: FP screen
T10 construct: Member of the panel of 53 single-specificity sHLA

[11] = target: T11, soluble HLA-A*4301 (sHLA-A*4301) (human); assay: FP screen
T11 construct: Recombinant soluble class I with endogenous peptides, made as m1

[12] = target: soluble HLA-A*0201 (sHLA-A*0201) (human); assay: FP screen
[13] = target: T12, soluble HLA-A*6901 (sHLA-A*6901) (human); assay: FP screen
T12 construct: Recombinant soluble class I with endogenous peptides, made as m1

soluble HLA-B*1501 [14] = target: T13, soluble HLA-B*1501 (human); assay: FP screen
T13 construct: Member of the panel of 53 single-specificity sHLA

soluble HLA-B*4001 [15] = target: T14, soluble HLA-B*4001 (human); assay: FP screen
T14 construct: Member of the panel of 53 single-specificity sHLA

soluble HLA-A*3601 [16] = target: T15, soluble HLA-A*3601 (human); assay: FP screen
T15 construct: Member of the panel of 53 single-specificity sHLA

soluble HLA-A*3002 [17] = target: T16, soluble HLA-A*3002 (human); assay: FP screen
T16 construct: Member of the panel of 53 single-specificity sHLA

soluble HLA-B*4501 [18] = target: T17, soluble HLA-B*4501 (human); assay: FP screen
T17 construct: Member of the panel of 53 single-specificity sHLA

soluble HLA-A*2301 [19] = target: T18, soluble HLA-A*2301 (human); assay: FP screen
T18 construct: Member of the panel of 53 single-specificity sHLA

soluble HLA-A*3402 [20] = target: T19, soluble HLA-A*3402 (human); assay: FP screen of 53 sHLA with FITC-peptide
T19 construct: Member of the panel of 53 single-specificity sHLA

soluble HLA-A*0301 [21] = target: T20, soluble HLA-A*0301 (human); assay: FP screen of 53 sHLA with FITC-peptide
T20 construct: Member of the panel of 53 single-specificity sHLA

soluble HLA-A*2402 [22] = target: T1, soluble HLA-A*2402; assay: FP screen of 53 sHLA with FITC-peptide
soluble HLA-A*6601 [23] = target: T4, soluble HLA-A*6601; assay: FP screen of 53 sHLA with FITC-peptide
soluble HLA-A*2902 = target: T21, soluble HLA-A*2902 (human); assay: FP screen of 53 sHLA with FITC-peptide
T21 construct: Member of the panel of 53 single-specificity sHLA

soluble HLA-B*1501 [24] = target: T13, soluble HLA-B*1501; assay: FP screen of 53 sHLA with FITC-peptide
soluble HLA-B*4501 [25] = target: T17, soluble HLA-B*4501; assay: FP screen of 53 sHLA with FITC-peptide
soluble HLA-A*2301 [26] = target: T18, soluble HLA-A*2301; assay: FP screen of 53 sHLA with FITC-peptide
soluble HLA-A*3402 [27] = target: T19, soluble HLA-A*3402; assay: FP screen
soluble HLA-B*1512 [28] = target: T2, soluble HLA-B*1512; assay: FP screen; remark: listed apart in the source
soluble HLA-A*2601 [29] = target: T3, soluble HLA-A*2601; assay: FP screen; remark: listed apart in the source
soluble HLA-A*0301 [30] = target: T20, soluble HLA-A*0301; assay: FP screen
soluble HLA-B*1801 [31] = target: T5, soluble HLA-B*1801; assay: FP screen; remark: listed apart in the source
[32] = target: T22, soluble HLA-A*6801 (sHLA-A*6801) (human); assay: FP screen
T22 construct: Recombinant soluble class I with endogenous peptides, made as m1

soluble HLA-A*0101 [33] = target: T6, soluble HLA-A*0101; assay: FP screen; remark: listed apart in the source
soluble HLA-B*1302 [34] = target: T7, soluble HLA-B*1302; assay: FP screen; remark: listed apart in the source
[35] = target: T8, soluble HLA-B*2705 (sHLA-B*2705); assay: FP screen; remark: listed apart in the source
soluble HLA-B*4002 [36] = target: T9, soluble HLA-B*4002; assay: FP screen; remark: listed apart in the source
soluble HLA-B*4402 [37] = target: T10, soluble HLA-B*4402; assay: FP screen; remark: listed apart in the source
[38] = target: T11, soluble HLA-A*4301 (sHLA-A*4301); assay: FP screen; remark: listed apart in the source
[39] = target: soluble HLA-A*0201 (sHLA-A*0201) (human); assay: FP screen; remark: listed apart in the source
[40] = target: T12, soluble HLA-A*6901 (sHLA-A*6901); assay: FP screen; remark: listed apart in the source
[41] = target: T23, soluble HLA-A*1102 (sHLA-A*1102) (human, UniProt P04439 25-308; P61769 21-119); assay: FP screen
T23 construct: Recombinant soluble class I with endogenous peptides, made as m1

soluble HLA-B*4001 [42] = target: T14, soluble HLA-B*4001; assay: FP screen; remark: listed apart in the source
soluble HLA-A*3601 [43] = target: T15, soluble HLA-A*3601; assay: FP screen; remark: listed apart in the source
soluble HLA-A*3002 [44] = target: T16, soluble HLA-A*3002; assay: FP screen; remark: listed apart in the source

KVFPKALINK (also: FITC-labeled, position not given here) [KVFPKALINK, FITC-labeled A3-like peptide]
binding result (soluble HLA-A*2402 [1]): no binding (tested: 100 ug/ml sHLA) | binding result (soluble HLA-B*1512 [2]): no binding (tested: 100 ug/ml sHLA) | binding result (soluble HLA-A*2601 [3]): no binding (tested: 100 ug/ml sHLA) | binding result (soluble HLA-A*6601 [4]): no binding (tested: 100 ug/ml sHLA) | binding result (soluble HLA-B*1801 [5]): no binding (tested: 100 ug/ml sHLA) | binding result (soluble HLA-A*0101 [6]): no binding (tested: 100 ug/ml sHLA) | binding result (soluble HLA-B*1302 [7]): no binding (tested: 100 ug/ml sHLA) | binding result [8]: no binding (tested: 100 ug/ml sHLA) | binding result (soluble HLA-B*4002 [9]): no binding (tested: 100 ug/ml sHLA) | binding result (soluble HLA-B*4402 [10]): no binding (tested: 100 ug/ml sHLA) | binding result [11]: no binding (tested: 100 ug/ml sHLA) | binding result [12]: no binding (tested: 100 ug/ml sHLA) | binding result [13]: no binding (tested: 100 ug/ml sHLA) | binding result (soluble HLA-B*1501 [14]): no binding (tested: 100 ug/ml sHLA) | binding result (soluble HLA-B*4001 [15]): no binding (tested: 100 ug/ml sHLA) | binding result (soluble HLA-A*3601 [16]): no binding (tested: 100 ug/ml sHLA) | binding result (soluble HLA-A*3002 [17]): no binding (tested: 100 ug/ml sHLA) | binding result (soluble HLA-B*4501 [18]): no binding (tested: 100 ug/ml sHLA) | binding result (soluble HLA-A*2301 [19]): no binding (tested: 100 ug/ml sHLA) | binding result (soluble HLA-A*3402 [20]): binds | binding result (soluble HLA-A*0301 [21]): binds

QYSWFKNGTF (not fully specified; also: FITC-labeled, position not given here) [QYSWFKNGTF, FITC-labeled A24-like peptide]
binding result (soluble HLA-A*2402 [22]): binds | binding result (soluble HLA-A*6601 [23]): binds | binding result (soluble HLA-A*2902): binds | binding result (soluble HLA-B*1501 [24]): binds | binding result (soluble HLA-B*4501 [25]): binds | binding result (soluble HLA-A*2301 [26]): binds | binding result (soluble HLA-A*3402 [27]): no binding (tested: 100 ug/ml sHLA) | binding result (soluble HLA-B*1512 [28]): no binding (tested: 100 ug/ml sHLA) | binding result (soluble HLA-A*2601 [29]): no binding (tested: 100 ug/ml sHLA) | binding result (soluble HLA-A*0301 [30]): no binding (tested: 100 ug/ml sHLA) | binding result (soluble HLA-B*1801 [31]): no binding (tested: 100 ug/ml sHLA) | binding result [32]: no binding (tested: 100 ug/ml sHLA) | binding result (soluble HLA-A*0101 [33]): no binding (tested: 100 ug/ml sHLA) | binding result (soluble HLA-B*1302 [34]): no binding (tested: 100 ug/ml sHLA) | binding result [35]: no binding (tested: 100 ug/ml sHLA) | binding result (soluble HLA-B*4002 [36]): no binding (tested: 100 ug/ml sHLA) | binding result (soluble HLA-B*4402 [37]): no binding (tested: 100 ug/ml sHLA) | binding result [38]: no binding (tested: 100 ug/ml sHLA) | binding result [39]: no binding (tested: 100 ug/ml sHLA) | binding result [40]: no binding (tested: 100 ug/ml sHLA) | binding result [41]: no binding (tested: 100 ug/ml sHLA) | binding result (soluble HLA-B*4001 [42]): no binding (tested: 100 ug/ml sHLA) | binding result (soluble HLA-A*3601 [43]): no binding (tested: 100 ug/ml sHLA) | binding result (soluble HLA-A*3002 [44]): no binding (tested: 100 ug/ml sHLA)
